# Source: patent publication US20140356376
# Tests used:
# [1] = biological target: thioFAB 4497 MP-LAFGA-QSY7
# [2] = biological target: thio-S4497 HC v1-MP-LAFG-PABC-(piperazinoBOR) AAC-193
# [3] = biological target: thioFAB 4497 MP-LAFAA-QSY7
protein,measurement,setting,value
staphopain A (protein) YNEQYVNKLENFKIRETQGNNGWCAGYTMSALLNATYNTNKYHAEAVMRFLHPNLQGQQFQFTGLTPREMIYFEQTQGRSPQLLNRMTTYNEVDNLTKNNKGIAILGSRVESRNGMHAGHAMAVVGNAKLNNGQEVIIIWNPWDNGFMTQDAKNNVIPVSNGDHYQWYSSIYGY,Percent cleavage pH 7.2,[1],38%
same,Percent cleavage pH 5,[2],100%
same,Percent cleavage pH 7.2,[2],46%
same,Percent cleavage pH 7.2,[3],23%
